Among the data in the NTF2 design screens of Basanta et al. (2020) are protease stability score values, retold here.

The data set in a line: protease stability score; higher = more stable; yeast display proteolysis, trypsin and chymotrypsin.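 Further: relative to predicted unfolded state with 0 unfolded-like and 1 meaning tenfold more protease.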
In the case of “SEDEESAKFVIQLILHSLRTGDFKIIEDLLDPNARVQINGVELHGRERVHEHWERIDHIEDVRIREVSVQGDKLVLNVERREKQGDYESSTKVIIYARKVNGKWVIDEVEVR”, the protease stability score was 2.55.

In turn, “SEDEESFRHIIELMKHSLKTGDWRHLEKLLDPNARVHINGKESHGREEAVKAFRHTWEMLGIDHIEFKDEKIRMQGNKVHVHIDGVINVNGVELKSHFEHHIVKFNGRWHTEKLVIQLD” gave a protease stability score of 1.93.

The sequence “SEDEESLKKFIELLFHSLHTGDWKDIHKNLDPHVRIEFNGQELHGREELIELIEELMKRFDHIHFRFRDVRIYGNKAVLETELELRVGDKSSRIDVTIIIEKVNGRWIIRRLHFK” came in with a protease stability score of 2.48.

Take “SEDEESMRRAMEIWEKTMETGDERIYEELVDPDVKIEINGKNFIGREDAVKVFHKLGIKVSEIREVRIIGDKMILKGEDNINGRNVDSRLITRKINGKWIIESFSIV”: the protease stability score turned out to be 1.22.

Consider “SEDEESSEKAAKFWLEMLRTGDWEEFERLADPNTKTHQGDKTIHGMEIVIEILMRVKGARVDTTHVRIDVQGDFVIFDVDNILNINGVHTEIRIHLRVLKVNGRWRVKELTIKHK”, for which the protease stability score is 1.57.

The sequence “SEDEESSKFALELMWHWEKTGDEKAISELADPHTLNHVNGVDLHGRELVIHFIHHMRIKRVHLKRIEIRMIGDYLDIRIHGRVDGEINGKDRDFHTDLVLIMRKVDGRWFVKSMSVIII” had a protease stability score of 1.45.

For the sequence “SEDEETARRIVKELLHDRLTGNEDRIRELADPDVRLIIGEFHMHGMDNFLRVLRFIYHHWRIHDTQMETHEIQGDKAYNHTIIDGEFDGKRHEWQIHILVLKVNGRWRLKTLELH”, the protease stability score amounted to 1.84.

Take “SEDEETIEDFVKWFVRALKTGDEDTINEMIDPHVLLHINGKDYHGRELVWRHFEELGIKHTELRHLHTYNGRVELESRLIVDGRVHKVHFHARKVNGRWTVTKVEIR”: the protease stability score was found to be 2.61.

In the case of “SEDEETIKRMVERWEKEFRTGDEKSYIENADPNYRLEVGDKTSIGRESVAKALDDLLRKRGVEIRDIKVHDVKIVGDFIHMDITFRGTQGDKEFDLKVILISKKVNGRWVPEHVHVH”, the protease stability score was 0.789.

On to “SEDEETLSEAIRLLLESLQTGDWRTFDKLIDPHARLVIDGKELHGRDLITTLLTHWRVEHFKIRHIEVQGEKVRIEGEVRGDIDGRKKDTHVRLTAEKINGRWLTQIVIIH”, for which the protease stability score was 1.98.

Sequence “SEDEETSEELARRFSKAMKTGDFDHLVQQLDPNVRIDINGKEMIGRERFEEDMRRLNLSNIHFITRDIKVEIQGEMLHVRIDGHTRINGKDVKTHDIWIFEKIDGRWRLKEWIVHEE” returned a protease stability score of 0.913.

“SEDEETVHEWFEVLRRDWATGNEENLMKLLDPHARLIIDGRELHGREHIIEFLRRHREHLGVTNIHVEFHIDNRKIFNGKVEVKGTLTIRINGKEEEREVILIIEKIDGRWYIKNLEIR” returned a protease stability score of 0.552.

As to “SEDEEVAERFLRLLIESLMTGDEDSFKSLLDPNDRLHIGEKHNHGRNLIVELLTRFGIELEHIELKSVEVINGRIHVNTHIRFIQGDKHIETEMRLNVDKIDGRWRLRSMHID”, the protease stability score turned out to be 1.98.

Consider “SEDEEVIKKHLKEFIDVLRTGNEEMSSYLADPNARVVDENEFSHGREDMTRIVSQARLHHIHVHDFELQGDKLLLDVHVDGVINGRRRRDKFHFVWLKYNGRWFLHSVHIR”, for which the protease stability score turned out to be 0.652.

As to “SEDEEVLEWAIKIVILALKTGDEDLFRKLADPTMRTEINGVILHGWKEVLRSLKELRVHHVRIERVEVINGRVHVDSREDVEFNGVRYETITHLVIEKVDGRWLMHSLKVE”, the protease stability score worked out at 2.06.

Consider “SEDEEVMKRAHELSARVMKTGDEETFRELADPDVRRNVNGVVRHGMENVIHLLRILFDEIRPRHFELTHMEVQGDKVRMEIRNDVRIGDKEVQLRVILIASKVNGRWHLQEVHVE”, for which the protease stability score is -0.496.

For “SEDEEVVKEWIKVVLHSMVTGDEDDVRRLFDPHTRIEINGVLFIGRKWAETLARRVDHHHIETIEYHRSHVVDGVATVDGTFRGREEVDGRKIEHHFRIEFVIMKIDGRWVTQQMRIK”, the protease stability score was determined as 1.56.

With “SEDEEWAKRMADNILEFLNTGDFREFSKELDPNTILRIDGREIHGMELVETHLEHARMRVDDWEIRSVRSVNGKLDVDMRLDGKLRFDGKEHYRKTESILIILKVDGKWRIHNIHVR”, the protease stability score was found to be 1.07.

Take “SEDEEWLHMAFELFAEAMRTGDEETLREYLDPRVRLVVGDKNLHGMEIVMRHFLEWRVRDVKIERIRVINGQLHIDGRLRVEFNGQEKNVDLTLILDKYNGRWRNRTIELR”: the protease stability score was 1.69.

For the sequence “SEDEEWSRLIVEEFIKVLDTGDERLTSEMLDPNARIVIGDKHIHGRESLVELIHRIKNIKFDFKHVNTQGDKVEVDGTIVFNGRTTTVLIRMKKVNGRWFVTEIHIE”, the protease stability score was 1.9.

“SEDEEWVRRKVERWIRAFKTGNFEELRRNADPDTRIHINGVNFHGREDFEKFVTELMRRVKNARIDVHRLELQGEFIHSDETEDVNGVEHHVRFTYRKIDGRWSLHSIEFH” registered a protease stability score of 1.59.

Sequence “SEDEEWVSLLATLILRVLLTGDEDIWKKLADPNTIHDIGEKHFHGREEIARFWMELRIKSFHVRDMDVVGDFFHIRTHMDVSIDGKDIRTDVEIHILIINGRVKRQRFEFH” displayed a protease stability score of 0.404.

Regarding “SEDEEYAKNVDKIMRESLMTGDEDSVERMFDPHAKVIVGDKEYHGREEMVRHIKWFLEHARIRDLRMRDVRIYGDKIEIDVEVDIDVNGKRIQRKEVIYVVKVNGKWIVEYIEIK”, the protease stability score is 1.54.

In the case of “SEDEEYIRELMKLIAQITQTGDEELFRRLVDPHTRLVQGDKQYHGWHAFRVFLEEMRIKSVRVEVRRIEIQGEYVHVDTHWQLHVHYNGRDIDLHIDVRNIVHKVNGRWIIRHIHVE”, the protease stability score stood at 0.986.

Take “SEDEEYLKRALELWDELVKTGDEHRSRRLFDPNARLEIGDKEYHGREEVTHMLRWLIKEIRVHSVTLKDFRSQGDKLIADTRQNREYNGKSDNVSLIMIIIKVDGRWLIESIKIE”: the protease stability score was 1.41.

For the sequence “SEDEEYMHNVARLLMESLLTGDEKTLKELFDPNTRVDINGKDIHGREDILTDWKRREHEWRVEDIKIEHEEVQGNKAVLHGKVTGDINGVKTHIHRDVHWEVINGKLKYVKFEHR”, the protease stability score came to 1.12.

In turn, “SEDEEYSHFASELFLNIFETGDWKTLLHYMDPNTRLVVNGRHHHGWKFMVEFLLHARIHTTRLKDIRTVNGKVDVDGRVDGHINGQKEERVFIINITKVNGVWILESVIIE” returned a protease stability score of 0.986.

Sequence “SEDEEYSRIIVKLWLEKMRTGDEDSLTKLMDPNYRLDINGKIFHGREEALLALREMVNRIDHFRDIKIHHVDIQGDKIRIDGRLEGEINGVHEIHKSSLVLVKYDGVWVIEEQKVL” yielded a protease stability score of 1.91.

On to “SEDEEYVEHMIRLVIRSLWTGDEHLLHRLIDPHARAEVNGQEFHGREEVLDILMRIRDELGVDHIELKDFELQGDKLILYSQNNVGDKHFHIIYELTKINGRWRIHRVFIELR”, for which the protease stability score was determined as 1.7.

As to “SEDEEYVKELADLFKELWETGDEETFMKLVDPNVRSDVNGKRVHGREEIRRVWHEVIRTLGIKYSHLRDMRIIGNKVVLDIELRVGDKRIELKVILIIVNGRMHYVELRLNEI”, the protease stability score was 1.89.

For the sequence “SEDEFDARLVYKLVLDLLLTGDPDTWRKLFDPNVKINIDGVDYHGMKEFERIVKEIRVIIHDSELHDVETQGDKIIYHGIIDGTYHVNGRTIRERRTFTIIAHKVDGRWILHSISYE”, the protease stability score was found to be 1.22.

On to “SEDEHAARWMTEDLERHTETGDEHRLTELIDPHAKLIFNGREYHGWEDYVKLFRELRVRRLEIKRVEVQGDKLFIDSTLRGNVNGREIDFEIHFVTHKINGRWKVHSVEII”, for which the protease stability score came to 1.69.

In the case of “SEDEHAVRELIELESHAWRTGDEDTLRRLIDPHTRVEQGDFIFHGREEWEKFVKRLLRHMRIEDIFIHHVRVQGDKVDTDSRLLVLFEGRREHVEVDLIILKIDGRWVISQIIIK”, the protease stability score is 1.39.

The sequence “SEDEHDARHAIELFLRSMETGDEQSIWELADPHTLSDIDGVKLHGRDLWITFLRRYSETLGVDRVIVQVERVEVQGDKVRSHIRLHINGVTLNSRVHAEKINGVWLNRKVEFG” displayed a protease stability score of 1.3.

“SEDEHDARLAIRLLLEALRTGDERIMEELLDPNVRFDINGKEFHGRKYVSEWLHRVDHIESRFELRDVHLFDGRIEVRGILRLHIDVNGKIDDQEKDIVLFVNKVDGRWIVHSWEIH” displayed a protease stability score of 1.33.

Regarding “SEDEHDSELALRIFIQEVYTGDWKRLADNMDPNVRLEINGVENHGRELAIKNLRRRLEELGVKVSDLKIDDIKVQGDKVNLDGQLNLHVNGRTIIINTEVIFRKVDGRWIIESIRYE”, the protease stability score is 1.7.

“SEDEHEALKVSEQFIRDLLTGDEDTFNRLADPNTRSEVGNKRQHGMDEVTHLWKELRIEDFTLRDQKIRIIGDKAEIDMDGEMVIIVNGKRVVQRVTLHLRVRKINGRWILHSIKLHIE” returned a protease stability score of 1.3.

As to “SEDEHELREFVNRYLHAMKTGDEDMLRDLLDPHVRFLIDGKNYHGREWVVAIFREFGIDRVEFELKDSEVQGDKVHIDGRVHINGQERSTEFRLEKYNGKWFLREEHYH”, the protease stability score was 1.5.

Take “SEDEHEMRLALEKEIKDWHTGDEDSLRELADPDVRLTVNGKRKHGWEILDVLLKHLRVRSVEIKHLRLQGDKAEMDLRMDGEVGDKRINLITHVIMYKVDGKWIIEEIVVK”: the protease stability score came to 1.43.

Consider “SEDEHFFRLVTRWIVRALLTGDEDSLQELLDPHVKFEINGRDFHGRESVYRAVLEIRRNDLRMKREHYHVQGDFVRSELTIEEELVIGDKIVTIESRLLLIILKINGRWYLEKMEVHFK”, for which the protease stability score came to 1.41.

“SEDEHFLERFLKLFLHAYETGDEDFIKHLLDPHTRIDIHIGDKTHHLHGRDEMSKLHRKLGAKVSRHRDSNMDIQGDKATSHIHGVEYVNGREIRIDIVLIMRKVDGRWVIESMIFIFH” gave a protease stability score of 1.25.

On to “SEDEHHIERMLKLFVKAVKTGDEDTLVKLLDPHARLHIGDKDHHGWEDIYKHEHELGLDRVEMDIHRIHLQGDKINVDGTLFIDGKHIEVVIYAKKVNGRWFVETREIR”, for which the protease stability score turned out to be 1.22.

The sequence “SEDEHHLERALKEWIKVFETGDEDKEKKMADPHMRTDINGVELHGRELMITLIVELWEKLGVDHLEFNLSRFEIVNGQVFLHMEENLFVNGQRLRFKHEIIFNKVDGRWIVEEIRIH” returned a protease stability score of 1.26.

In the case of “SEDEHHSREFLRVTEEILQTGDEEKREKNADPHMRFVLVYNGRETIIHGRETVVHFIHEELQRLGWDRFRVETERMSVYNGVVHIDIRIFVGDKTIHWHEHAKKVNGRWVYKSVEIRRE”, the protease stability score came to 1.03.

In turn, “SEDEHIADMVIKELQHILNTGDEDRLRDLMDPNTRFDINGRHIHGREDVAHWLAREVLEMRVEFHLEHWDIVDGRIHIHSNVLIIVGNKIIRIKTEILIIKIDGRWYVEELKFR” gave a protease stability score of 1.36.

“SEDEHKLRTMLELWLEAHRTGDEDLLRKLMDPDVRIHVGDKDFHGWDHEIELFRKELKRLGIDKIDIEVKRIDLQGDKVILEVIVHINGKEIHMIIYANKFNGRWHVKQIEIR” showed a protease stability score of 1.35.

Turning to “SEDEHLADHFLRLQRKHIDTGDEDSFDRMIDPRAKFDIDGQEFHGREWSEWVKKRFDHVHIERIITRKFHVVDGRAEFHVDYDGRLNYNGVEVRVTLKQITIIEKIDGRWYVRSESIK”, the protease stability score came out at 0.656.
